In article PMC11413682 (2024):

B1: CUL2^ZYG11B (residues 490–728) (domain or fragment)
chain: ELFIVRQLLQIVKQKTNQNSVDTTLKFTLSALWNLTDESPTTCRHFIENQGLELFMRVLESFPTESSIQQKVLGLLNNIAEVQELHSELMWKDFIDHISSLLHSVEVEVSYFAAGIIAHLISRGEQAWTLSRSQRNSLLDDLHSAILKWPTPECEMVAYRSFNPFFPLLGCFTTPGVQLWAVWAMQHVCSKNPSRYCSMLIEEGGLQHLYNIKDHEHTDPHVQQIAVAILDSLEKHIVR

Legend:
[1] = molecular target: B1; assay: ITC
SNX11-degron peptide [2] = assay: ITC; pre-formed ZYG11B/ORF10 N5 peptide complex
SNX11-degron peptide [3] = assay: ITC
[4] = molecular target: B1; assay: ITC; remark: listed apart in the source

Binder	Ka [4]	further results
GY [SARS-CoV-2 ORF10 N2 peptide]		Kd [1]: > 200 µM
B1		Kd (SNX11-degron peptide [2]): 5.23 µM; Kd (SNX11-degron peptide [3]): 0.4 µM
GYIN [SARS-CoV-2 ORF10 N4 peptide]	193000 M⁻¹	
GYINV [SARS-CoV-2 ORF10 N5 peptide]	340000 M⁻¹	
GYI [SARS-CoV-2 ORF10 N3 peptide]	69100 M⁻¹	
